Where a SMILES comes first, the peptide text is derived from it. [ ]: non-standard residue; d: D form. The star is where a group is joined. Phe(4-N(CH2CH2Cl)2) = N[C@@H](Cc1ccc(N(CCCl)CCCl)cc1)C(=O)O; Chlorambucil = O=C(CCCc1ccc(N(CCCl)CCCl)cc1)*; X1 = Cn1c(CCCC(=O)*)nc2cc(N(CCCl)CCCl)ccc21
Key:
[1] = Chemostability in phosphate buffer; type: physicochemical; conditions: free PDC; 0.01 M phosphate buffer (method pH 7.2), 37 °C, LC-MS PDC peak area, exponential decay fit, two independent experiments
Method: Stock solutions were prepared by dissolving 5 mg of P4-chlorambucil, P4-melphalan or P4-bendamustine coated PEG-AuNPs in 1 mL of deionized water.
100 μl of stock solution were diluted to 1 ml of 0.01 M phosphate buffer solution pH 7.2 and incubated at 37 °C. At designated time points an aliquot was removed and centrifuged at 5000 rpm for 5 min. The supernatant was recovered, filtered through a […] syringe and analyzed by LCMS for the presence of free drug. Results for each time point were expressed as mean % PDC integrity ± standard error, calculated from two independent experiments.
(§1) The chemo-stability of the P4-PDCs was tested at a physiological pH of 7.4, while the solutions were incubated at 37 °C. Biostability was assessed after incubation in a mouse liver homogenate. In each case aliquots were taken at selected times and analyzed by LC–MS. PDC integrity was determined by calculating the area under the curve of the PDC peak. The R^2 values of the exponential decay curves ranged from 0.97 to 0.99 for the three PDCs; the functions of these curves were used to calculate the t½ values. […] In liver homogenate (Fig. 5c), stability decayed more rapidly with half-lives ranging from 10.6 to 15.4 min. There was no significant difference in behavior between the three PDCs and no free drug was observed.

[2] = Biostability in liver homogenate; type: in vitro ADME; conditions: pH 7.4; free PDC; 100 µl sample in 1 ml mouse liver homogenate (6 mg total protein), 37 °C, LC-MS, exponential decay fit; read-out: Biostability (liver homogenate) t½
Method: Mice were sacrificed by CO2 euthanasia. Livers were removed, and rinsed in cold 0.01 M PBS buffer pH 7.4. They were transferred to 10 ml Tris-HCI, pH 7.4 and homogenized in a Potter–Elvehjem glass tissue grinder for 4 min. The tissue homogenate was centrifuged for 20 min at 4 °C, 14,000 rpm, and the supernatant was collected. Protein concentration was measured using the BCA protein assay using bovine serum albumin as a standard. The homogenate was used immediately or else stored in liquid nitrogen.
100 μl of each sample was added to 1 ml of liver homogenate (equivalent to 6 mg total protein). The samples were incubated at 37 °C and aliquots were taken during the different incubation period at different time intervals. The collected aliquots were immediately filtered, and analyzed by LC–MS.
as §1

A20 cells = test: Cell cytotoxicity assay (XTT); type: cell-based, murine; conditions: 72 h, free drug 0-50 µM; for IC50: Mus musculus
Method: To measure drug cytotoxic effect, cells were seeded into 96-wells Nunclon culture plates at 2.5 × 10^3 cells per well and grown overnight at 37 °C. The spent medium was removed and the cells cultured for 72 h in fresh medium containing either free drug, PDCs, PEG-AuNPs or PDC-PEG-AuNPs at concentrations ranging from 0 to 50 µM (drug) filtered through a 0.22 µm syringe. Cellular metabolic status, used as a measure of cell viability, was then determined by replacing the culture medium with fresh medium containing XTT reagent (50 µl/well) and the cells were re-cultured for 2 h sat 37 °C. Absorbance in the wells was measured at 450 nm and subtracted from the reference absorbance at 630 nm. Culture medium was used as background control. All experiments were performed in triplicate on three separate occasions. Data are presented as mean ± S.D.

| Structure (SMILES) | Chemostability (pH 7.4) t½ [1] | half-life [2] | maximal %GI (growth inhibition) (A20 cells) | IC50 (A20 cells) |
| --- | --- | --- | --- | --- |
| C[C@@H](O)[C@H](NC(=O)[C@H](CO)NC(=O)[C@H](Cc1c[nH]cn1)NC(=O)[C@@H](N)Cc1ccc(N(CCCl)CCCl)cc1)C(=O)N1CCC[C@H]1C(=O)N[C@@H](CO)C(=O)N[C@@H](CO)C(=O)N1CCC[C@H]1C(=O)O [P4-Melphalan] (H-[Phe(4-N(CH2CH2Cl)2)]HSTPSSP-OH) | 24.6 mins | 10.6 min | – | – |
| C[C@@H](O)[C@H](NC(=O)[C@H](CO)NC(=O)[C@H](Cc1c[nH]cn1)NC(=O)CCCc1ccc(N(CCCl)CCCl)cc1)C(=O)N1CCC[C@H]1C(=O)N[C@@H](CO)C(=O)N[C@@H](CO)C(=O)N1CCC[C@H]1C(=O)O [P4-Chlorambucil] (Chlorambucil-HSTPSSP-OH) | 21.5 mins | 12.4 min | – | – |
| N[C@@H](Cc1ccc(N(CCCl)CCCl)cc1)C(=O)O [Melphalan] | – | – | 94.9% | 9.6 µM |
| C[C@@H](O)[C@H](NC(=O)[C@H](CO)NC(=O)[C@H](Cc1c[nH]cn1)NC(=O)CCCc1nc2cc(N(CCCl)CCCl)ccc2n1C)C(=O)N1CCC[C@H]1C(=O)N[C@@H](CO)C(=O)N[C@@H](CO)C(=O)N1CCC[C@H]1C(=O)O [P4-Bendamustine] (X1-HSTPSSP-OH) | 19.3 mins | 15.4 min | – | – |
| O=C(O)CCCc1ccc(N(CCCl)CCCl)cc1 [Chlorambucil] | – | – | 89.4% | 15.8 µM |
| Cn1c(CCCC(=O)O)nc2cc(N(CCCl)CCCl)ccc21 [bendamustine] | – | – | 43.1% | > 50 µM |
